Target: T1, ankyrin-repeat-, SH3-domain- and proline-rich-region-containing protein 2 (ASPP2), FLAG-tagged (UniProt Q8CG79 1-1128)
T1 construct: ASPP2, FLAG-tagged, co-expressed with HA-MAGI-3 in a heterologous expression system; HEK293 is probably the host; also called FLAG-ASPP2; source: heterologous expression system, in lysate
T1 sequence (looked up): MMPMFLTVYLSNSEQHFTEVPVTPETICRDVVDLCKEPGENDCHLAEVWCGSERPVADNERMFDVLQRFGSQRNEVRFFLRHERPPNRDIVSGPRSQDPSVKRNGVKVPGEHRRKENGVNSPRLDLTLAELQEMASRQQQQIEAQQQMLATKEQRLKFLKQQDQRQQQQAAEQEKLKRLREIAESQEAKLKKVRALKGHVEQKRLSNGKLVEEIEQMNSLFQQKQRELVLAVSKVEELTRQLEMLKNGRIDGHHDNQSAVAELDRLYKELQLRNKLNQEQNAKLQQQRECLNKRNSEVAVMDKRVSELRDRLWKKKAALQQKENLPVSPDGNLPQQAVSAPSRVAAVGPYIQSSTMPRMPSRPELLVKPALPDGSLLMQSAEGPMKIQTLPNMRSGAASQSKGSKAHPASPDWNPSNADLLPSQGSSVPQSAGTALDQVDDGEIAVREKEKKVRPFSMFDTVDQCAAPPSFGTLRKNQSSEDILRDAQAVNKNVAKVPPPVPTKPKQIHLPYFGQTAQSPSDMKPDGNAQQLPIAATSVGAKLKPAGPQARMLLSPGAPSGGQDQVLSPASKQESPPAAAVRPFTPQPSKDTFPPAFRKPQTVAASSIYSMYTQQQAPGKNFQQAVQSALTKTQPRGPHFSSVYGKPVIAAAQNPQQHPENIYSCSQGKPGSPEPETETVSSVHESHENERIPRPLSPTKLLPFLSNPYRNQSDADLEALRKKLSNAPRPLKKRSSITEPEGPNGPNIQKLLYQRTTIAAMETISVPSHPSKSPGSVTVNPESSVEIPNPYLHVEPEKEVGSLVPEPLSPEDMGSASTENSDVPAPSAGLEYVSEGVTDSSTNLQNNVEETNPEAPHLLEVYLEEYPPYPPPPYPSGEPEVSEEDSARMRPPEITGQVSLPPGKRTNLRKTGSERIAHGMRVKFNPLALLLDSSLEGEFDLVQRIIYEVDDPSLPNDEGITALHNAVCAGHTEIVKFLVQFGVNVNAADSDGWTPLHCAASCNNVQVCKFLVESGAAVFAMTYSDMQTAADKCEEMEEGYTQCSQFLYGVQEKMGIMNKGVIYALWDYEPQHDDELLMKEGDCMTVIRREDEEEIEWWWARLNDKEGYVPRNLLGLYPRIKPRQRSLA
Experiment: co-IP; FLAG immunoprecipitation in a heterologous expression system; FLAG-ASPP2 and HA-MAGI-3 co-expressed with GFP-RASSF10; 20 mM Tris-HCl pH 7.5, 150 mM NaCl, 1% Triton X-100; blot quantified, normalised to GFP control
Details: partners not purified

B1: MAGI-3 (natural protein, UniProt Q9EQJ9 1-1476, looked up)
chain: MSKTLKKKKHWLSKVQECAVSWAGPPGDLGAEIRGGAERGEFPYLGRLRDEAGGGGGTCCVVSGKAPSPGDVLLEVNGTPVSGLTNRDTLAVIRHFREPIRLKTVKPGKVINKDLRHYLSLQFQKGSIDHKLQQVIRDNLYLRTIPCTTRAPRDGEVPGVDYNFISVEQFKALEESGALLESGTYDGNFYGTPKPPAEPSPFQPDPVDQVLFDNEFDTESQRKRTTSVSKMERMDSSLPEEEEDEDKEAVNGSGSMETREMHSETSDCWMKTVPSYNQTNSSMDFRNYMMRDENLEPLPKNWEMAYTDTGMIYFIDHNTKTTTWLDPRLCKKAKAPEDCEDGELPYGWEKIEDPQYGTYYVDHLNQKTQFENPVEEAKRKKQLGQAEIHSAKTDVERAHFTRDPSQLKGVLVRASLKKSTMGFGFTIIGGDRPDEFLQVKNVLKDGPAAQDGKIAPGDVIVDINGNCVLGHTHADVVQMFQLVPVNQYVNLTLCRGYPLPDDSEDPVVDIVAATPVINGQSLTKGETCMNTQDFKLGAMVLDQNGKSGQILASDRLNGPSESSEQRASLASSGSSQPELVTIPLIKGPKGFGFAIADSPTGQKVKMILDSQWCQGLQKGDIIKEIYHQNVQNLTHLQVVEVLKQFPVGADVPLLILRGGPCSPTKTAKTKTDTKENSGSLETINEPIPQPMPFPPSIIRSGSPKLDPSEVYLKSKTLYEDKPPNTKDLDVFLRKQESGFGFRVLGGDGPDQSIYIGAIIPLGAAEKDGRLRAADELMCIDGIPVKGKSHKQVLDLMTTAARNGHVLLTVRRKIFYGEKQPEDESHQAFSQNGSPRLNRAELPTRSAPQEAYDVTLQRKENEGFGFVILTSKSKPPPGVIPHKIGRVIDGSPADRCGGLKVGDHISAVNGQSIVDLSHDNIVQLIKDAGVTVTLTVVAEEEHHGPPSGTNSARQSPALQHRPMGQAQANHIPGDRIALEGEIGRDVCSSYRHSWSDHKHLAQPDTAVISVVGSRHNQSLGCYPVELERGPRGFGFSLRGGKEYNMGLFILRLAEDGPAIKDGRIHVGDQIVEINGEPTQGITHTRAIELIQAGGNKVLLLLRPGTGLIPDHGDWDTNSPSSSNVIYDEQPPPLPSSHSASTFEESHVPATEDSLTRVQICEKAEELKDTVQEKKSTLNGSQPEMKYQSVHKTMSKKDPPRGSGHGEKSRLKGENGVTRRGRSASPKKSVNRHSEEHLEKIPRPLKSDPKEKSRDRSLSPRKGESKGRLTIKAGSGQDPYRKDRGRSSSPKKQQKIGGNSLSNTEGKLSEAGSRRAAGHPRDSTEQLPDGREKSGVSRKDLKQSQPGKTRTKSPEKKSSKVDETSLPSKKTSSTAGRVVSEKEKGKKPTAGETSRETVEHTQISAKQLKQEAQEKTALGNADDHKGRESEVTDRCRERAGCTPQSSSLVKKAPITPGPWRVPRANKVTGTTGMADKQL
notes: MAGI-3, expressed in a heterologous expression system for FLAG immunoprecipitation; HEK293 is probably the host; also called HA-MAGI-3; MAGI proteins; source: heterologous expression system, in lysate
fold co-precipitation with GFP-RASSF10 co-expressed, over GFP alone: ~4 fold

— paper PMC7954791, “MAGIs regulate aPKC to enable balanced distribution of intercellular tension for epithelial sheet homeostasis” (Communications Biology, 2021)
